# Measured values taken from patent US7514534 (DYAX, dated 2009).
# T1: MMP-26 catalytic domain, tagged with hexa-histidine (human, UniProt Q9NRE1 90-261)
# T1 construct: the forward primer adds Met-Ala before it; also called MMP-26 target protein; Matrilysin-2; not shown: Also any N-terminal residues added by the forward primer (Met-Ala according to our card; the primers were not visible to me)
# T1 sequence: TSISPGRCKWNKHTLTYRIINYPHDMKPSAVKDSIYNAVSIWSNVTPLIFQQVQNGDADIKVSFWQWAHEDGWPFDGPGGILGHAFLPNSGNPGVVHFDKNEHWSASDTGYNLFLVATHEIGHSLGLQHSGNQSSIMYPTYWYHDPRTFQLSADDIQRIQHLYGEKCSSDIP
# B1: A04 (antibody, human IgG4, V domains shown)
# VH: EVQLLESGGGLVQPGGSLRLSCAASGFTFSEYNMAWVRQAPGKGLEWVSRIGSSGGKTKYADSVKGRFTISRDNSKNTLYLQMNSLRAEDTAVYYCARDEAPDYGDDAEAFDIWGQGTMVTVSS
# VL: QSALTQPPSASGTPGQRVTISCSGGYSNMGSNYAHWYQQVPGTAPKLLIYNNNQRPSGVPDRFSGSKSGTSASLAISGLRSEDEADYYCAAWDENLSGPVFGTGTKVTVLG
# notes: whole human IgG4
# B2: C08 (antibody, human IgG4, V domains shown)
# VH: EVQLLESGGGLVQPGGSLRLSCAASGFTFSYYEMMWVRQAPGKGLEWVSSISPSGGPTMYADSVKGRFTISRDNSKNTLYLQMNSLRAEDTGVYYCARKMGRVGYCSSTSCYRDDYYGMDVWGQGTTVTVSS
# VL: DIQMTQSPPSLSALVGDRVTITCRASQSISRYVNWYQQKPGKAPKVLIYAASIVENGVPSRFSGSGSGTDFSLTISSLQPEDFATYYCQQTYSTPLTFGGGTKLAIKR
# notes: whole human IgG4
# B3: D06 (antibody, human IgG4, V domains shown)
# VH: EVQLLESGGGLVQPGGSLRLSCAASGFTFSGYIMEWVRQAPGKGLEWVSVIVSSGGFTMYADSVKGRFTISRDNSKNTLYLQMNSLRAEDTAVYYCARVGDSKGGYYLDYWGQGTLVTVSS
# VL: DIQMTQSPSSLSASVGDRVTITCRTSQIINTYLNWYQQKPGKAPKLLIYAASTLQGGVPSRFSGSGSGTDFTLTIKSLQPDDFATYYCQQSYTSPRTFGQGTKVEIKR
# notes: whole human IgG4
# B4: C06 (antibody, human IgG4, V domains shown)
# VH: EVQLLESGGGLVQPGGSLRLSCAASGFTFSFYFMFWVRQAPGKGLEWVSYIGPSGGPTNYADSVKGRFTISRDNSKNTLYLQMNSLRAEDTAVYYCARHYPREYQLPGSFDPWGQGTLVTVSS
# VL: DIQMTQSPSSLSASVGDRVTITCRASQGISNYLAWYQQKPGKVPKLLIYPASTLQSGVPSRFSGSGSGTDFTLTISSLQPEDFATYYCQQADSFPPTFGGGTTVEIRR
# notes: whole human IgG4
# B5: D01 (antibody, V domains shown)
# VH: EVQLLESGGGLVQPGGSLRLSCAASGFTFSMYLMFWVRQAPGKGLEWVSVISSSGGETSYADSVKGRFTISRDNSKNTLYLQMNSLRAEDTAVYYCARQVSDWTRLYSFDYWGQGTLVTVSS
# VL: QSELTQPPSASGTPGQRITISCSGSSSNIGSNYVYWYQQFPETAPKLLISRNDQRPSGVPDRFSGSKSGTSASLAISGLRSEDEADYYCASWDDSLSGVVFGGGTKLTVLG
# notes: whole human IgG4
# B6: C07 (antibody, human IgG4, V domains shown)
# VH: EVQLLESGGGLVQPGGSLRLSCAASGFTFSYYVMMWVRQAPGKGLEWVSVIRPSGGITTYADSVKGRFTISRDNSKNTLYLQTNSLRAEDTAVYYCAKIDYGGNSFYFDYWGQGTLVTVSS
# VL: DIQMTQSPSSLSASVGDRVTITCRASQSISNYLNWYQQRPGKAPKLLIYAASSLERGVPSRFSGSGSGTDFTLTISSLQSEDFATYYCQQSYSPPPLTFGGGTKLEIKR
# notes: whole human IgG4
# B7: D07 (antibody, human IgG4, V domains shown)
# VH: EVQLLESGGGLVQPGGSLRLSCAASGFTFSEYNMFWVRQAPGKGLEWVSYIYSSGGSTDYADSVKGRFTISRDNSKNTLYLQMNSLRAEDTAVYYCARVGIAARPFDPWGQGTLVTVSS
# VL: QSELTQPASVSGSPGQSITISCTGTNSDIGGYNYVSWYQQHPGKVPKLLIFEVNNRPSGVSSRFSGSKSGDTASLTISGLQPEDEAVYYCGSFTVSVTYVFGTGTKVTVLG
# notes: whole human IgG4
# B8: D04 (antibody, human IgG4, V domains shown)
# VH: EVQLLESGGGLVQPGGSLRLSCAASGFTFSDYQMMWVRQAPGKGLEWVSRISPSGGMTRYADSVKGRFTISRDNSKNTLYLPMNSLRAEDTAVYYCARSGPYYFDYWGQGTLVTVSS
# VL: DIQMTQSPSSLSASVGDRVAITCRASQSIDTYLNWYQQKPGKAPKLLIYAASKLEDGVPSRFSGSGTGTDFTLTIRSLQPEDFASYFCQQSYSSPGITFGPGTKVEIKR
# notes: whole human IgG4
# B9: C11 (antibody, human IgG4, V domains shown)
# VH: EVQLLESGGGLVQPGGSLRLSCAASGFTFSEYPMWWVRQAPGKGLEWVSWIYPSGGNTDYADSVKGRFTISRDNSKNTLYLQMNSLRAEDTAVYYCAIPYCSSSSCPLHWGQGTLVTVSS
# VL: QSELTQPPSASGSPGQSVTISCTGTSSDVGGYNYVSWYQQHPDKAPKLLIYEVTQRPSGVPDRFSGSRSGNTASLTVSGLQAEDEADYYCSSYAGRNNLYVFGPGTKVTVLG
# notes: whole human IgG4
# B10: C10 (antibody, human IgG4, V domains shown)
# VH: EVQLLESGGGLVQPGGSLRLSCAASGFTFSVYVMMWVRQAPGKGLEWVSGIVPSGGKTHYADSVKGRFTISRDNSKNTLYLQMNSLRAEDTAVYYCARPDYGGNSRPLEYWGQGTLVTVSS
# VL: QSELTQPASVSGSPGQSITISCTGTSSDVGSYNLVSWYQQHPGKAPKLMIYEGSKRPSGVSNRFSGSKSGNTASLTISGLQAEDEADYYCCSYAGSSTYVFGTGTKVTVLG
# notes: whole human IgG4
# B11: C09 (antibody, human IgG4, V domains shown)
# VH: EVQLLESGGGLVQPGGSLRLSCAASGFTFSQYFMNWVRQAPGKGLEWVSYISGGRTPYADSVKGRFTISRDNSKNTLYLQMNSLRAEDTAVYYCAILLGPSSSNHPFLGPWGQGTLVTVSS
# VL: DIQMTQSPGTLSLSPGERATLSCRASQSVSSTYLAWYQQKPGQAPRLLISGASSRATGIPDRFSGSGSGTDFTLTISRLEPEDFAVYYCQQYGSSPYTFGQGTKLEIKR
# notes: whole human IgG4
# B12: A03 (antibody, human IgG4, V domains shown)
# VH: EVQLLESGGGLVQPGGSLRLSCAASGFTFSIYSMDWVRQAPGKGLEWVSSIYSSGGATRYADSVKGRFTISRDNSKNTLYLQMNSLRAEDTAVYYCARCSWLQLVPMHPWGQGTLVTVSS
# VL: QSALTQPPSASGTPGQRVTISCSGGSSNIGSNFVYWYRQLPGTAPKLLIYRNYQRPSGVPDRFSGSKSGTSASLAISGLLSEDEADYYCAAWDDNVGGVFGSGTKVTVLG
# notes: whole human IgG4
# B13: D03 (antibody, human IgG4, V domains shown)
# VH: EVQLLESGGGLVQPGGSLRLSCAASGFTFSWYRMDWVRQAPGKGLEWVSVIGSSGGMTYYADSVKGRFTISRDNSKNTLYLQMNSLRAEDTAVYYCARRVVGGAGMDVWGQGTTVTVSS
# VL: DIQMTQSPSAMSASVGDRVTITCRASQVMINYIAWFRQKPGKVPERLIYAASTLQNGVPSRFSGSGSGTDFTLTISRLEPEDFAVYYCQHRITWPPALTFGGGTTVEIKR
# notes: whole human IgG4
# B14: D02 (antibody, human IgG4, V domains shown)
# VH: EVQLLESGGGLVQPGGSLRLSCAASGFTFSWYDMAWVRQAPGKGLEWVSRIVPSGGHTSYADSVKGRFTISRDNFKNTLYLQMNSLRAEDTAVYYCARRASRPEFFDYWGQGALVTVSS
# VL: DIQMTQSPSFLSASVGDRVTITCRASQGISTYLAWYQQKPGKAPKVLIYTASTLQSGVPSRFSGSGSGTEFTLTISSLQPEDFATYYCQQSYITPPEVTFGPGTKVDIKR
# notes: whole human IgG4
# Molecular target: T1, MMP-26 catalytic domain, tagged with …
# Assay: bead-based ELISA, MMP-26 on nickel beads, IgG4 culture supernatant
# Method: Reformatted and expressed full-length MMP-26 binding IgG4 antibodies were tested for specificity in a bead-based ELISA. Approximately 1.25 μg of MMP-26 protein was bound to nickel-coated magnetic beads (Novagen) which had been pre-blocked with phosphate buffered saline containing 5% (w/v) nonfat dry milk and 0.05% (v/v) Tween-20. The beads were washed in phosphate buffered saline containing 0.05% (v/v) Tween-20 (PBS-T) and 100 uls of unpurified cell culture supernatant containing transiently produced MMP-26-binding antibodies was added and incubated on a rotator for sixty minutes. The beads were washed with PBS-T and MMP-26-binding antibodies were detected with an HRP-conjugated anti-human secondary antibody. Data is expressed in fold over background where background consists of beads, blocking agent, and culture supernatant containing target antibody (Table 2; in this table, Results shown as fold over background (F>B) where background consists of beads, blocking agent, and culture supernatant).
row,F > B (fold over background),Binder
1,3.17 fold over background,B1
2,3.4 fold over background,B2
3,3.5 fold over background,B3
4,2.2 fold over background,B4
5,3 fold over background,B5
6,3.12 fold over background,B6
7,3.3 fold over background,B7
8,2.6 fold over background,B8
9,2.6 fold over background,B9
10,3.41 fold over background,B10
11,3.4 fold over background,B11
12,3.54 fold over background,B12
13,2.4 fold over background,B13
14,3.3 fold over background,B14

# Molecular target: T2, MMP-3 (UniProt P08254 100-477, limits assumed)
# T2 construct: also called stromelysin-1
# Assay: cross-reactivity ELISA on coated MMP
# Method: (§1) Twenty-one of the reformatted MMP-26 antibodies were tested for MMP cross reactivity by ELISA analysis. MMP-3, MMP-7, MMP-9, and MMP-12 were coated onto Immulon 2 HB 96-well plates at a concentration of 1 μg/ml for 1 hour at 37° C. The plates were blocked with PBS-T containing 5% (w/v) nonfat dry milk for thirty minutes and subsequently washed with PBS-T. Each antibody was tested for reactivity to all of the above mentioned MMPs at a concentration of 2 μg/ml with an incubation time of 1 hour. Bound antibody was detected with an HRP-conjugated anti-human secondary antibody (Table 3, NT=not tested.).
# T2 sequence (P08254 100-477 limits assumed): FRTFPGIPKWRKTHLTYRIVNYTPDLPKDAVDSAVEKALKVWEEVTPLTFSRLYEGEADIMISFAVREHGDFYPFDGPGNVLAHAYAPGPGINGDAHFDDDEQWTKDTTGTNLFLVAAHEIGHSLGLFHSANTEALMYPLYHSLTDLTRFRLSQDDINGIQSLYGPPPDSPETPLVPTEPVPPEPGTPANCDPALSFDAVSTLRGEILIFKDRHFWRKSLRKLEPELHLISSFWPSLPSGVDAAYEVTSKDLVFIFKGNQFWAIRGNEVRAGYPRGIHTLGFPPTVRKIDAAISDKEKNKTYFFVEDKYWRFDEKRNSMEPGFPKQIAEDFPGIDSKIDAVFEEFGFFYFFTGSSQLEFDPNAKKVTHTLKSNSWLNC
row,binding result,Binder
1,no binding (tested: 2 µg/ml),B1
2,no binding (tested: 2 µg/ml),B2
3,no binding (tested: 2 µg/ml),B3
4,no binding (tested: 2 µg/ml),B4
5,no binding (tested: 2 µg/ml),B5
6,no binding (tested: 2 µg/ml),B6
7,no binding (tested: 2 µg/ml),B7
8,no binding (tested: 2 µg/ml),B8
9,no binding (tested: 2 µg/ml),B9
10,no binding (tested: 2 µg/ml),B10
11,no binding (tested: 2 µg/ml),B11
12,no binding (tested: 2 µg/ml),B12
13,no binding (tested: 2 µg/ml),B13
14,no binding (tested: 2 µg/ml),B14

# Molecular target: T3, MMP-9 (UniProt P14780 107-707, limits assumed)
# T3 construct: also called gelatinase
# Assay: cross-reactivity ELISA on coated MMP
# Method: as §1
# T3 sequence (P14780 107-707 limits assumed): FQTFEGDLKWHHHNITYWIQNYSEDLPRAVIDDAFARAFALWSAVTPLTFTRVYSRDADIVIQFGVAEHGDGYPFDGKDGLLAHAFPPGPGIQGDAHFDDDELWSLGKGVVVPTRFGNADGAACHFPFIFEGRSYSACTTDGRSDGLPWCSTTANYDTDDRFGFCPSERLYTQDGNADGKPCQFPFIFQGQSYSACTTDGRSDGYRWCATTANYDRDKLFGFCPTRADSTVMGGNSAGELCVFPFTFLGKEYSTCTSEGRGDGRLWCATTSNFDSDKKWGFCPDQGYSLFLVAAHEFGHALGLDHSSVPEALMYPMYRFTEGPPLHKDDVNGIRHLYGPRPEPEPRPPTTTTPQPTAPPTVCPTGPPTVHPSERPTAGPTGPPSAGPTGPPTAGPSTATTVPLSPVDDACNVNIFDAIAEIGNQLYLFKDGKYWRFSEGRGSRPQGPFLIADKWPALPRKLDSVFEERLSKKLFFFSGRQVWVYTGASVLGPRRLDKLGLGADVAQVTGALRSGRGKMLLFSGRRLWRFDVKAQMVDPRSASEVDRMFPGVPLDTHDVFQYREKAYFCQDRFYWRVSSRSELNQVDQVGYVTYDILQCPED
row,binding result,Binder
1,no binding (tested: 2 µg/ml),B1
2,no binding (tested: 2 µg/ml),B2
3,no binding (tested: 2 µg/ml),B3
4,no binding (tested: 2 µg/ml),B4
5,no binding (tested: 2 µg/ml),B5
6,no binding (tested: 2 µg/ml),B6
7,no binding (tested: 2 µg/ml),B7
8,no binding (tested: 2 µg/ml),B8
9,no binding (tested: 2 µg/ml),B9
10,no binding (tested: 2 µg/ml),B10
11,no binding (tested: 2 µg/ml),B11
12,no binding (tested: 2 µg/ml),B12
13,no binding (tested: 2 µg/ml),B13
14,no binding (tested: 2 µg/ml),B14
